# Assay results from article PMC3666333 (Nature communications, 2013).
# Molecular target: the molecule itself
# Test: SAXS titration
protein,measurement,value
"Gp4D (residues 241-566, 36-kDa), minimal fragment of the T7 gene 4 helicase that forms hexameric rings (domain or fragment, bacteriophage T7, UniProt P03692 241-566, looked up) CHLNGHDREIMEQVWNAGPWIPDGVVSALSLRERIREHLSSEESVGLLFSGCTGINDKTLGARGGEVIMVTSGSGMGKSTFVRQQALQWGTAMGKKVGLAMLEESVEETAEDLIGLHNRVRLRQSDSLKREIIENGKFDQWFDELFGNDTFHLYDSFAEAETDRLLAKLAYMRSGLGCDVIILDHISIVVSASGESDERKMIDNLMTKLKGFAKSTGVVLVVICHLKNPDKGKAHEEGRPVSITDLRGSGALRQLSDTIIALERNQQGDMPNLVLVRILKCRFTGDTGIAGYMEYNKETGWLEPSSYSGEEESHSESTDWSNDTDF",binding result,binds
